According to patent publication US20220290113A1:

Target: Plasmid-expressed Nme2Cas9 (human-codon-optimized, with NLSs and 3xHA tag), expressed in HEK293T cells (Neisseria meningitidis strain Del1444)
Assay: cell-based or functional assay
Details: scale: mass ratio of Acr plasmid to Nme2Cas9 plasmid

Row | Substance | dose dependence of Acr inhibition of Nme2Cas9 genome editing: mass ratio of cotransfected Acr and Nme2Cas9 plasmids giving full inhibition
1 | AcrIIC1Nme | 2
2 | AcrIIC4Hpa | 1
